Laboratory results from IntAct's records for PubMed 10545448.

B1: Meiosis-inducing protein 1 (Saccharomyces cerevisiae), P21190 (parent)
chain: MQADMHGKLHAALEDGFFLFPFEQQQQPNIYYDTTTDQEDRPCFSFGSTISPRSWHFEKSDKIASSQLQNLVHTQPIHLINPQILFNEEFLNLENIDSQPISKETKTTKDCTMATGPERGKKSSESTRSSSLSSLFSNDESASTFHSSFNNHDNFQKSNRNGDDIDISDTIKYETNTNAQKDIKIFQENFEFNEFPYTQDFYPYTTNYTYSKPTNIHESINSKNTDSYSQYQDQFPPHTDNIHSFNNRHYSNHKSTNCNYYNNTSNNNNASDNVYEADPFIDEPQVPSYYYPLEIAFDVEKSPPPSLQKLNSKELEFLKKLNSKLSRYAAAYSFSSSNDQDYYDKVRFQEISYKFSKTYS
partner: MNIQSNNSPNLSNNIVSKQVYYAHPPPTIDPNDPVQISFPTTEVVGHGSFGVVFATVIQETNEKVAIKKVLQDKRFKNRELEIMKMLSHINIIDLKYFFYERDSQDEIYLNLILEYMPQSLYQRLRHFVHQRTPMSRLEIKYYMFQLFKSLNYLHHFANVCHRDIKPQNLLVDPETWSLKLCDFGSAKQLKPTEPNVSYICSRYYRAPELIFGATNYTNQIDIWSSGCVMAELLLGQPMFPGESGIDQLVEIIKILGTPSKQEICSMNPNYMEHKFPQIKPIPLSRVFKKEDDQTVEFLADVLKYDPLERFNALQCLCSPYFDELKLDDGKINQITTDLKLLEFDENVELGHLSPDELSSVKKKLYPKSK
B2: Meiosis-inducing protein 1 (Saccharomyces cerevisiae), P21190 (parent)
chain: B1 chain
partner: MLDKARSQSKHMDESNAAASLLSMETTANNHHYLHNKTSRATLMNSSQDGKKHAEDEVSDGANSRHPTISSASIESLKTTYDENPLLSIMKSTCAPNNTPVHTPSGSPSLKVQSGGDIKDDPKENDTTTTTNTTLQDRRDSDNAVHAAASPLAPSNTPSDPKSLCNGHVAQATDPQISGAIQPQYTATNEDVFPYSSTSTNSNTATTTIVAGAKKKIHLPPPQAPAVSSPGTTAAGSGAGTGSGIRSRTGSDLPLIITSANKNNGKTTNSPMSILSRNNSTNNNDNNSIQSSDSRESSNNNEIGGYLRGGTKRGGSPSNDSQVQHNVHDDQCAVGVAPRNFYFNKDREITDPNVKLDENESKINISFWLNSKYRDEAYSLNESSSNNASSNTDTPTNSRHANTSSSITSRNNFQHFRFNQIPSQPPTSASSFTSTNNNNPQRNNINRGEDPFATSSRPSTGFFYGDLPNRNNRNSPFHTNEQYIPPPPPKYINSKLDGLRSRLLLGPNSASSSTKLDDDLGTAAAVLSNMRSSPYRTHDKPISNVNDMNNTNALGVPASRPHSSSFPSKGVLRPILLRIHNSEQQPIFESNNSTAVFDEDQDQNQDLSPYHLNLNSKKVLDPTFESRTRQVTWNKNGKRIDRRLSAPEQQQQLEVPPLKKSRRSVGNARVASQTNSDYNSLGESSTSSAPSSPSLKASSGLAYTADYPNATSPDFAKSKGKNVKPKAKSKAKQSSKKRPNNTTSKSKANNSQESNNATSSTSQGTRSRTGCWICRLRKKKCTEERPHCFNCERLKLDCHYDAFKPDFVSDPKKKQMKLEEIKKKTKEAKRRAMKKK

Variants of: B1
Conditions: with rim11_yeast RIM11, P38615

| Variant | effect of a mutation on the interaction |
| --- | --- |
| MQADMHGKLHAALEDGFFLFPFEQQQQPNIYYDTTTDQEDRPCFSFGSTISPRSWHFEKSDKIASSQLQNLVHTQPIHLINPQILFNEEFLNLENIDSQPISKETKTTKDCTMATGPERGKKSSESTRSSSLSSLFSNDESASTFHSSFNNHDNFQKSNRNGDDIDISDTIKYETNTNAQKDIKIFQENFEFNEFPYTQDFYPYTTNYTYSKPTNIHESINSKNTDSYSQYQDQFPPHTDNIHSFNNRHYSNHKSTNCNYYNNTSNNNNASDNVYEADPFIDEPQVPSYYYPLEIAFDVEKSPPPSLQKLNSKELEFLKKLNSKLSRYAAAYSFSSSNDQDYYDKVKFQEISYKFSKTYS [R347K] | disrupting interaction strength |
| MQADMHGKLHAALEDGFFLFPFEQQQQPNIYYDTTTDQEDRPCFSFGSTISPRSWHFEKSDKIASSQLQNLVHTQPIHLINPQILFNEEFLNLENIDSQPISKETKTTKDCTMATGPERGKKSSESTRSSSLSSLFSNDESASTFHSSFNNHDNFQKSNRNGDDIDISDTIKYETNTNAQKDIKIFQENFEFNEFPYTQDFYPYTTNYTYSKPTNIHESINSKNTDSYSQYQDQFPPHTDNIHSFNNRHYSNHKSTNCNYYNNTSNNNNASDNVYEADPFIDEPQVPSYYYPLEIAFDVEKSPPPSLQKLNSKELEFLKKLNSKLSRYAAAYSFSSSNDQDYYDKVKFQEISYKFSKTYF [R347K;S360F] | decreasing interaction strength |
| MQADMHGKLHAALEDGFFLFPFEQQQQPNIYYDTTTDQEDRPCFSFGSTISPRSWHFEKSDKIASSQLQNLVHTQPIHLINPQILFNEEFLNLENIDSQPISKETKTTKDCTMATGPERGKKSSESTRSSSLSSLFSNDESASTFHSSFNNHDNFQKSNRNGDDIDISDTIKYETNTNAQKDIKIFQENFEFNEFPYTQDFYPYTTNYTYSKPTNIHESINSKNTDSYSQYQDQFPPHTDNIHSFNNRHYSNHKSTNCNYYNNTSNNNNASDNVYEADPFIDEPQVPSYYYPLEIAFDVEKSPPPSLQKLNSKELEFLKKFNSKLSRYAAAYSFSSSNDQDYYDKVRFQEISYKFSKTYS [L321F] | disrupting interaction strength |
| MQADMHGKLHAALEDGFFLFPFEQQQQPNIYYDTTTDQEDRPCFSFGSTISPRSWHFEKSDKIASSQLQNLVHTQPIHLINPQILFNEEFLNLENIDSQPISKETKTTKDCTMATGPERGKKSSESTRSSSLSSLFSNDESASTFHSSFNNHDNFQKSNRNGDDIDISDTIKYETNTNAQKDIKIFQENFEFNEFPYTQDFYPYTTNYTYSKPTNIHESINSKNTDSYSQYQDQFPPHTDNIHSFNNRHYSNHKSTNCNYYNNTSNNNNASDNVYEADPFIDEPQVPSYYYPLEIAFDVEKSPPPSLQKLNSKELEFLKKFNSKLSRYAAAYSFSSSNDQDYYDKVRFQEISYKFSKTYF [L321F;S360F] | decreasing interaction strength |

Variants of: B1
Conditions: with rim11_yeast RIM11, P38615
Remark: another data set of the same source

| Variant | effect of a mutation on the interaction |
| --- | --- |
| MQADMHGKLHAALEDGFFLFPFEQQQQPNIYYDTTTDQEDRPCFSFGSTISPRSWHFEKSDKIASSQLQNLVHTQPIHLINPQILFNEEFLNLENIDSQPISKETKTTKDCTMATGPERGKKSSESTRSSSLSSLFSNDESASTFHSSFNNHDNFQKSNRNGDDIDISDTIKYETNTNAQKDIKIFQENFEFNEFPYTQDFYPYTTNYTYSKPTNIHESINSKNTDSYSQYQDQFPPHTDNIHSFNNRHYSNHKSTNCNYYNNTSNNNNASDNVYEADPFIDEPQVPSYYYPLEIAFDVEKSPPPSLQKLNSKELEFLKKLNSKLSRYAAAYSFSSSNDQDYYDKVKFQEISYKFSKTYF [R347K;S360F] | with no effect |
| MQADMHGKLHAALEDGFFLFPFEQQQQPNIYYDTTTDQEDRPCFSFGSTISPRSWHFEKSDKIASSQLQNLVHTQPIHLINPQILFNEEFLNLENIDSQPISKETKTTKDCTMATGPERGKKSSESTRSSSLSSLFSNDESASTFHSSFNNHDNFQKSNRNGDDIDISDTIKYETNTNAQKDIKIFQENFEFNEFPYTQDFYPYTTNYTYSKPTNIHESINSKNTDSYSQYQDQFPPHTDNIHSFNNRHYSNHKSTNCNYYNNTSNNNNASDNVYEADPFIDEPQVPSYYYPLEIAFDVEKSPPPSLQKLNSKELEFLKKLNSKLSRYAAAYSFSSSNDQDAADKVRFQEIAAKFAKAAA [Y342A;Y343A;S352A;Y353A;S356A;T358A;Y359A;S360A] | with no effect |
| MQADMHGKLHAALEDGFFLFPFEQQQQPNIYYDTTTDQEDRPCFSFGSTISPRSWHFEKSDKIASSQLQNLVHTQPIHLINPQILFNEEFLNLENIDSQPISKETKTTKDCTMATGPERGKKSSESTRSSSLSSLFSNDESASTFHSSFNNHDNFQKSNRNGDDIDISDTIKYETNTNAQKDIKIFQENFEFNEFPYTQDFYPYTTNYTYSKPTNIHESINSKNTDSYSQYQDQFPPHTDNIHSFNNRHYSNHKSTNCNYYNNTSNNNNASDNVYEADPFIDEPQVPSYYYPLEIAFDVEKSPPPSLQKLNSKELEFLKKFNSKLSRYAAAYSFSSSNDQDYYDKVRFQEISYKFSKTYF [L321F;S360F] | with no effect |

Variants of: B2
Conditions: with ume6_yeast UME6, P39001

| Variant | effect of a mutation on the interaction |
| --- | --- |
| MQADMHGKLHAALEDGFFLFPFEQQQQPNIYYDTTTDQEDRPCFSFGSTISPRSWHFEKSDKIASSQLQNLVHTQPIHLINPQILFNEEFLNLENIDSQPISKETKTTKDCTMATGPERGKKSSESTRSSSLSSLFSNDESASTFHSSFNNHDNFQKSNRNGDDIDISDTIKYETNTNAQKDIKIFQENFEFNEFPYTQDFYPYTTNYTYSKPTNIHESINSKNTDSYSQYQDQFPPHTDNIHSFNNRHYSNHKSTNCNYYNNTSNNNNASDNVYEADPFIDEPQVPSYYYPLEIAFDVEKSPPPSLQKLNSKELEFLKKLNSKLSRYAAAYSFSSSNDQDYYDKVRFQEIAYKFAKTYA [S352A;S356A;S360A] | decreasing interaction strength |
| MQADMHGKLHAALEDGFFLFPFEQQQQPNIYYDTTTDQEDRPCFSFGSTISPRSWHFEKSDKIASSQLQNLVHTQPIHLINPQILFNEEFLNLENIDSQPISKETKTTKDCTMATGPERGKKSSESTRSSSLSSLFSNDESASTFHSSFNNHDNFQKSNRNGDDIDISDTIKYETNTNAQKDIKIFQENFEFNEFPYTQDFYPYTTNYTYSKPTNIHESINSKNTDSYSQYQDQFPPHTDNIHSFNNRHYSNHKSTNCNYYNNTSNNNNASDNVYEADPFIDEPQVPSYYYPLEIAFDVEKSPPPSLQKLNSKELEFLKKLNSKLSRYAAAYSFSSSNDQDAADKVRFQEIAAKFAKAAA [Y342A;Y343A;S352A;Y353A;S356A;T358A;Y359A;S360A] | disrupting interaction strength |
| MQADMHGKLHAALEDGFFLFPFEQQQQPNIYYDTTTDQEDRPCFSFGSTISPRSWHFEKSDKIASSQLQNLVHTQPIHLINPQILFNEEFLNLENIDSQPISKETKTTKDCTMATGPERGKKSSESTRSSSLSSLFSNDESASTFHSSFNNHDNFQKSNRNGDDIDISDTIKYETNTNAQKDIKIFQENFEFNEFPYTQDFYPYTTNYTYSKPTNIHESINSKNTDSYSQYQDQFPPHTDNIHSFNNRHYSNHKSTNCNYYNNTSNNNNASDNVYEADPFIDEPQVPSYYYPLEIAFDVEKSPPPSLQKLNSKELEFLKKFNSKLSRYAAAYSFSSSNDQDYYDKVRFQEISYKFSKTYF [L321F;S360F] | decreasing interaction strength |
| MQADMHGKLHAALEDGFFLFPFEQQQQPNIYYDTTTDQEDRPCFSFGSTISPRSWHFEKSDKIASSQLQNLVHTQPIHLINPQILFNEEFLNLENIDSQPISKETKTTKDCTMATGPERGKKSSESTRSSSLSSLFSNDESASTFHSSFNNHDNFQKSNRNGDDIDISDTIKYETNTNAQKDIKIFQENFEFNEFPYTQDFYPYTTNYTYSKPTNIHESINSKNTDSYSQYQDQFPPHTDNIHSFNNRHYSNHKSTNCNYYNNTSNNNNASDNVYEADPFIDEPQVPSYYYPLEIAFDVEKSPPPSLQKLNSKELEFLKKFNSKLSRYAAAYSFSSSNDQDYYDKVRFQEISYKFSKTYS [L321F] | disrupting interaction strength |
| MQADMHGKLHAALEDGFFLFPFEQQQQPNIYYDTTTDQEDRPCFSFGSTISPRSWHFEKSDKIASSQLQNLVHTQPIHLINPQILFNEEFLNLENIDSQPISKETKTTKDCTMATGPERGKKSSESTRSSSLSSLFSNDESASTFHSSFNNHDNFQKSNRNGDDIDISDTIKYETNTNAQKDIKIFQENFEFNEFPYTQDFYPYTTNYTYSKPTNIHESINSKNTDSYSQYQDQFPPHTDNIHSFNNRHYSNHKSTNCNYYNNTSNNNNASDNVYEADPFIDEPQVPSYYYPLEIAFDVEKSPPPSLQKLNSKELEFLKKLNSKLSRYAAAYSFSSSNDQDYYDKVKFQEISYKFSKTYF [R347K;S360F] | disrupting interaction strength |
| MQADMHGKLHAALEDGFFLFPFEQQQQPNIYYDTTTDQEDRPCFSFGSTISPRSWHFEKSDKIASSQLQNLVHTQPIHLINPQILFNEEFLNLENIDSQPISKETKTTKDCTMATGPERGKKSSESTRSSSLSSLFSNDESASTFHSSFNNHDNFQKSNRNGDDIDISDTIKYETNTNAQKDIKIFQENFEFNEFPYTQDFYPYTTNYTYSKPTNIHESINSKNTDSYSQYQDQFPPHTDNIHSFNNRHYSNHKSTNCNYYNNTSNNNNASDNVYEADPFIDEPQVPSYYYPLEIAFDVEKSPPPSLQKLNSKELEFLKKLNSKLSRYAAAYSFSSSNDQDYYDKVKFQEISYKFSKTYS [R347K] | disrupting interaction strength |
